In the supplement of paper PMC9112550, “Optimization of the antimicrobial peptide Bac7 by deep mutational scanning” (BMC Biology, 2022):

Test system: Escherichia coli TOP10
Experiment: shrunken log2 fold change of peptide-encoding DNA abundance (4.5 h post-induction vs induction); higher = less antimicrobial activity (less host growth inhibition)
Conditions: time post-induction: 4.5 h; library: site-saturation at positions 5, 18, 19, 20
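Further: peptides expressed intracellularly from a pBAD plasmid library in pooled LB shake-flask culture, induced with 0.3% L-arabinose, DNA abundance read by NGS, three biological replicates, DESeq2 with apeglm shrinkage.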

Row | Sequence | shrunken log2 fold change
1 | RRIRQRPPRLPRPRPRPCALPRP | 0.0342
2 | RRIRHRPPRLPRPRPRPQGMPRP | -0.201
3 | RRIRLRPPRLPRPRPRPASIPRP | 0.0291
4 | RRIRERPPRLPRPRPRPKCDPRP | 0.175
5 | RRIRHRPPRLPRPRPRPYCTPRP | -0.18
6 | RRIRTRPPRLPRPRPRPRDHPRP | 0.0565
7 | RRIRGRPPRLPRPRPRPQPIPRP | 0.114
8 | RRIRERPPRLPRPRPRPGSDPRP | -0.369
9 | RRIRPRPPRLPRPRPRPDSWPRP | 0.392
10 | RRIRARPPRLPRPRPRPDKNPRP | -0.00427
11 | RRIRNRPPRLPRPRPRPYFGPRP | -0.284
12 | RRIRIRPPRLPRPRPRPFANPRP | -0.0225
13 | RRIRIRPPRLPRPRPRPEVYPRP | -0.0738
14 | RRIRFRPPRLPRPRPRPHSYPRP | -0.0495
15 | RRIRWRPPRLPRPRPRPLMEPRP | 0.835
16 | RRIRVRPPRLPRPRPRPAASPRP | 0.267
17 | RRIRLRPPRLPRPRPRPGAGPRP | 0.448
18 | RRIRMRPPRLPRPRPRPGPLPRP | 0.532
19 | RRIRPRPPRLPRPRPRPGIDPRP | -0.0536
20 | RRIRERPPRLPRPRPRPSQTPRP | -0.067
21 | RRIRWRPPRLPRPRPRPYFIPRP | -0.647
22 | RRIRHRPPRLPRPRPRPGAMPRP | 0.392
23 | RRIRKRPPRLPRPRPRPHSVPRP | 0.11
24 | RRIRRRPPRLPRPRPRPHKRPRP | 0.124
25 | RRIRRRPPRLPRPRPRPRCWPRP | 0.486

Row | Sequence | shrunken log2 fold change
26 | RRIRLRPPRLPRPRPRPPQVPRP | 0.162
27 | RRIRPRPPRLPRPRPRPHRWPRP | 0.25
28 | RRIRTRPPRLPRPRPRPRNFPRP | 0.172
29 | RRIRVRPPRLPRPRPRPPCGPRP | 0.297
30 | RRIRDRPPRLPRPRPRPTWMPRP | 0.507
31 | RRIRERPPRLPRPRPRPQSCPRP | 0.00299
32 | RRIRYRPPRLPRPRPRPTFMPRP | -0.0549
33 | RRIRYRPPRLPRPRPRPPCWPRP | 0.263
34 | RRIRTRPPRLPRPRPRPRQCPRP | 0.153
35 | RRIRLRPPRLPRPRPRPNSWPRP | -0.0901
36 | RRIRWRPPRLPRPRPRPACGPRP | 0.508
37 | RRIRYRPPRLPRPRPRPVPIPRP | -0.297
38 | RRIRCRPPRLPRPRPRPWYNPRP | -1.45
39 | RRIRTRPPRLPRPRPRPSKKPRP | -0.174
40 | RRIRNRPPRLPRPRPRPKFNPRP | -0.569
41 | RRIRHRPPRLPRPRPRPTNIPRP | -0.135
42 | RRIRWRPPRLPRPRPRPYANPRP | -0.399
43 | RRIRVRPPRLPRPRPRPPQSPRP | 0.249
44 | RRIRLRPPRLPRPRPRPVMVPRP | -0.0863
45 | RRIRRRPPRLPRPRPRPTEMPRP | 0.477
46 | RRIRKRPPRLPRPRPRPEWTPRP | 0.0364
47 | RRIRLRPPRLPRPRPRPSPDPRP | 0.164
48 | RRIRTRPPRLPRPRPRPTCHPRP | -0.405
49 | RRIRIRPPRLPRPRPRPCWNPRP | -0.301
50 | RRIRDRPPRLPRPRPRPCMRPRP | 0.311

Row | Sequence | shrunken log2 fold change
51 | RRIRERPPRLPRPRPRPPMPPRP | 0.0249
52 | RRIRGRPPRLPRPRPRPLPMPRP | 0.666
53 | RRIRVRPPRLPRPRPRPNWKPRP | -0.0426
54 | RRIRRRPPRLPRPRPRPKAIPRP | 0.111
55 | RRIRCRPPRLPRPRPRPTYTPRP | -0.793
56 | RRIRSRPPRLPRPRPRPGTWPRP | 0.358
57 | RRIRLRPPRLPRPRPRPWIFPRP | -0.0453
58 | RRIRNRPPRLPRPRPRPPLRPRP | 0.138
59 | RRIRWRPPRLPRPRPRPNMFPRP | -0.0911
60 | RRIRGRPPRLPRPRPRPEDAPRP | 1.65
61 | RRIRGRPPRLPRPRPRPPAVPRP | 1.27
62 | RRIRMRPPRLPRPRPRPFGYPRP | 0.067
63 | RRIRGRPPRLPRPRPRPNIAPRP | 0.197
64 | RRIRERPPRLPRPRPRPQNYPRP | -0.409
65 | RRIRTRPPRLPRPRPRPMLTPRP | 0.21
66 | RRIRIRPPRLPRPRPRPLATPRP | -0.0671
67 | RRIRARPPRLPRPRPRPGVIPRP | 0.0533
68 | RRIRHRPPRLPRPRPRPHMIPRP | 0.13
69 | RRIRPRPPRLPRPRPRPMAEPRP | 0.106
70 | RRIRKRPPRLPRPRPRPEHWPRP | 0.428
71 | RRIRERPPRLPRPRPRPVYVPRP | -1.11
72 | RRIRTRPPRLPRPRPRPDINPRP | -0.151
73 | RRIRQRPPRLPRPRPRPEEKPRP | 0.00355
74 | RRIRFRPPRLPRPRPRPRNPPRP | 0.118
75 | RRIRIRPPRLPRPRPRPAHCPRP | 0.0837
